# Key:
# [1] = target: the molecule itself; test: stepwise photobleaching (TIR microscopy); dilute solution (1 pM) of kin401T99N:mGFP added to imaging chambers with HiLyte 647-labelled microtubules bound to the glass, no ATP, oxygen scavenging agent
# [2] = target: the molecule itself; test: SEC; gel filtration of purified kin401T99N:mGFP before concentration
protein,measurement,setting,value
"GFP-labelled Drosophila kinesin-1 (aa 1-401) rigor mutant, Kin401T99N:mGFP (domain or fragment, The construct without the mutation was a gift from T Surrey; also called rigor kinesin; GFP-labelled rigor kinesin; source: bacteria (BL21(DE3) strain), dimeric fraction purified using gel filtration; not shown: monomeric GFP, C-terminal, kept) not shown",stoichiometry N,[1],≤ 2
same,stoichiometry N,[2],2

# — PMC3985186, “The influence of dynein processivity control, MAPs, and microtubule ends on directional movement of a localising mRNA” (eLife, 2014)
